# ± gives the uncertainty stated by the source.
# Experiment: self-splicing fitness, log relative to wild type (ln ratio); higher = more splicing; Tetrahymena group I intron in knt gene, E. coli kanamycin selection, DiMSum; sequences stand for … in CUCUCU…GGAGGGAAAAGUUAUCAGGCAUGCACCUGGUAGCUAGUCUUUAAACCAAUAGAUUGCAUCGGUUUAAAAGGCAAGACCGUCAAAUUGCGGGAAAGGGGUCAACAGCCGUUCAGUACCAAGUCUCAGGGGAAACUUUGAGAUGGCCUUGCAAAGGGUAUGGUAAUAAGCUGACGGACAUGGUCCUAACCACGCAGCCAAGUCCUAAGUCAACAGAUCUUCUGUUGAUAUGGAUGCAGUUCACAGACUAAAUGUCGGUCGGGGAAGAUGUAUUCUUCUCAUAAGAUAUAGUCGGACCUCUCCUUAAUGGGAGCUAGCGGAUGAAGUGAUGCAACACUGGAGCCGCUGGGAACUAAUUUGUAUGCGAAAGUAUAUUGAUUAGUUUUGGAGUACUCGUGGUCG
# How it was run: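 Colonies from six replicate transformations of E. coli BL21(DE3) were pooled and amplicon-sequenced on an Illumina HiSeq 2500. The library placed an intron with all eight P1ex-region nucleotides randomised inside the knt kanamycin-resistance gene on pET-22b(+), and cells grew overnight at 37°C or 30°C on LB agar with or without 25 μg/mL kanamycin (plus 100 μg/mL carbenicillin, 50 μM IPTG, 0.2% rhamnose). Fitness is the DiMSum error-weighted combination of wild-type-normalised replicate fold changes, kanamycin versus none.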
Sequence,self-splicing fitness (ln) (30 °C),self-splicing fitness (ln) (37 °C)
AACAAGCAAUAUUACGUGAA,-2.08 ± 0.082,-0.353 ± 0.081
UUGUAGCAAUAUUACGACCA,-0.463 ± 0.16,-0.51 ± 0.17
UGUGAGCAAUAUUACGGAAG,-2.97 ± 0.25,-1.76 ± 0.26
AUUUAGCAAUAUUACGCACG,-1.9 ± 0.28,-0.778 ± 0.2
AGAGAGCAAUAUUACGCACG,-2.18 ± 0.38,–
GUGAAGCAAUAUUACGACAC,-1.1 ± 0.12,0.386 ± 0.18
AGCCAGCAAUAUUACGCAGC,–,-1.21 ± 0.28
CACCAGCAAUAUUACGCUCG,-0.247 ± 0.062,0.219 ± 0.087
CGCAAGCAAUAUUACGUUUA,-2.8 ± 0.12,-1.98 ± 0.095
UGAUAGCAAUAUUACGAUAU,-2.94 ± 0.2,-2.12 ± 0.21
CCAAAGCAAUAUUACGUUUG,-2.93 ± 0.089,-1.43 ± 0.086
CGUGAGCAAUAUUACGUCAU,-2.46 ± 0.21,-2.81 ± 0.24
AAUCAGCAAUAUUACGUAUC,-0.504 ± 0.044,0.251 ± 0.068
UUGAAGCAAUAUUACGCUCC,-4.04 ± 0.29,-3.02 ± 0.31
ACCCAGCAAUAUUACGGGCC,-3.49 ± 0.18,-1.45 ± 0.14
GAUGAGCAAUAUUACGGGAG,-3.76 ± 0.25,-1.54 ± 0.41
GCGCAGCAAUAUUACGGUUA,-1.11 ± 0.084,-0.631 ± 0.08
GCGAAGCAAUAUUACGAAAC,-1.86 ± 0.35,-0.819 ± 0.44
GACCAGCAAUAUUACGCCAU,-3.59 ± 0.17,-2.09 ± 0.13
UGAAAGCAAUAUUACGUGCU,-2.79 ± 0.12,-1.32 ± 0.12
AAAUAGCAAUAUUACGAAGG,-2.61 ± 0.21,-1.45 ± 0.27

Sequence,self-splicing fitness (ln) (30 °C),self-splicing fitness (ln) (37 °C)
AGGAAGCAAUAUUACGCAAG,-3.11 ± 0.22,-1.45 ± 0.13
CAAGAGCAAUAUUACGUACU,-3.74 ± 0.21,-1.92 ± 0.2
UCUUAGCAAUAUUACGGUGG,-1.18 ± 0.13,-1.2 ± 0.16
CUGAAGCAAUAUUACGUGGC,-1.58 ± 0.077,-0.491 ± 0.099
CUGCAGCAAUAUUACGGCUU,-4.37 ± 0.36,-2.23 ± 0.28
UCCCAGCAAUAUUACGCUCG,-2.99 ± 0.18,-2.15 ± 0.29
CAUAAGCAAUAUUACGUAAG,0.111 ± 0.062,0.3 ± 0.079
CCAGAGCAAUAUUACGUAAG,-1.59 ± 0.097,-0.37 ± 0.12
UCUCAGCAAUAUUACGGUUU,-1.91 ± 0.082,-0.695 ± 0.081
UUUUAGCAAUAUUACGAAGG,–,-1.85 ± 0.41
GUUUAGCAAUAUUACGCAUA,-1.69 ± 0.18,-1.19 ± 0.19
UGGGAGCAAUAUUACGACGG,-2.22 ± 0.26,-1.69 ± 0.39
AAGAAGCAAUAUUACGCAGG,-2.54 ± 0.14,-1.26 ± 0.14
CAUGAGCAAUAUUACGGUAC,-2.67 ± 0.41,-2.32 ± 0.34
UCGAAGCAAUAUUACGCGAG,-1.47 ± 0.074,-0.905 ± 0.1
CCUGAGCAAUAUUACGCCUG,-3.03 ± 0.26,-2.47 ± 0.25
GCUAAGCAAUAUUACGACGG,-1.8 ± 0.11,-1.49 ± 0.14
AGUAAGCAAUAUUACGACGA,-1.15 ± 0.073,-0.782 ± 0.079
GUACAGCAAUAUUACGCGCG,-1.45 ± 0.19,-0.578 ± 0.17
ACCCAGCAAUAUUACGGCGG,-2.11 ± 0.08,-1.04 ± 0.11
CCACAGCAAUAUUACGUAGA,-2.28 ± 0.085,-1.5 ± 0.12

Sequence,self-splicing fitness (ln) (30 °C),self-splicing fitness (ln) (37 °C)
CGCGAGCAAUAUUACGGAAG,-1.78 ± 0.17,-2.32 ± 0.2
UAGCAGCAAUAUUACGAAAA,-2.56 ± 0.25,-1.27 ± 0.2
CUACAGCAAUAUUACGGAUC,-4.11 ± 0.3,-2.51 ± 0.26
CGUUAGCAAUAUUACGUUUA,-2.86 ± 0.23,-2.63 ± 0.18
CCCUAGCAAUAUUACGCGAG,-3.61 ± 0.19,-3.25 ± 0.21
CCCGAGCAAUAUUACGAAGG,–,-2.18 ± 0.23
GCGGAGCAAUAUUACGGCUA,–,-1.81 ± 0.39
AUCCAGCAAUAUUACGGAAA,-1.07 ± 0.092,-1.02 ± 0.084
UGUUAGCAAUAUUACGUGCA,-0.172 ± 0.15,0.0583 ± 0.19
AGCAAGCAAUAUUACGCCAC,-3.17 ± 0.28,-3.33 ± 0.28
AUGGAGCAAUAUUACGUGUU,-3.69 ± 0.15,-3.73 ± 0.24
GGGGAGCAAUAUUACGAAAC,-3.15 ± 0.42,-0.654 ± 0.3
CAGAAGCAAUAUUACGUUGA,-2.84 ± 0.2,-1.53 ± 0.15
UCCGAGCAAUAUUACGGCGU,-1.17 ± 0.081,-0.438 ± 0.11
GUUAAGCAAUAUUACGGGGC,-3.5 ± 0.24,-2.58 ± 0.25
GGUCAGCAAUAUUACGCAGA,–,-2.72 ± 0.33
AAUUAGCAAUAUUACGGUUG,-2.53 ± 0.13,-0.897 ± 0.13
CGAAAGCAAUAUUACGACGU,-0.439 ± 0.067,0.0287 ± 0.078
ACUAAGCAAUAUUACGUGAC,-3.82 ± 0.21,-1.28 ± 0.14
CGGAAGCAAUAUUACGGCUA,-2.54 ± 0.46,-0.623 ± 0.28

# — the supplement of paper PMC7877785
